{"source": "paper PMC11153552", "about": "“Clock gene homologs lin-42 and kin-20 regulate circadian rhythms in C. elegans” (Scientific Reports, 2024)", "proteins": {"B1": {"name": "LIN-42 N-terminus residues 41-315 (domain or fragment, C. elegans)", "chain": "GAMDPEFNTWSSSSVEFLDDADDNRLLFTCTFTLPHGTVLSSATYADGFHEQYLTIGDNFLARLEPKGQSFILSAAAASVKQRIFARVTMPDGALRACELLCEFETDRAKITVLALRSAFSLQASHVSSNFHVFTFITKHSSTCALTHIDYASIPYLGLLPTDLIGKSLLAFVYSPDVHVVRQAHIDLHNSRGKIVKSIADLRLVAHNGSILRCQTEWSAYVNPWTRKMELVVARHRICSLPIGDSDVISSPPPGIQSNTLPPVMAKTFEDELRTIMNKPVP", "notes": "remnant left on the N-terminus of LIN-42 after TEV cleavage of the HisGβ1 tag; LIN-42 (PERIOD homolog), C. elegans, residues 41-315; Crystallised construct was 41-315; Density was poor for the putative N-terminal PAS domain (residues 41-146), so only the PAS-B dimer was modelled; also called protease-resistant core of the LIN-42 N-terminus; LIN-42 PAS-B dimer; source: E. coli Rosetta2 (DE3), …"}}, "target": "the molecule itself", "experiment": "crystal structure; hanging-drop vapor diffusion at 22 °C; LIN-42 41-315 at 4 mg/mL; reservoir 150 mM lithium sulfate, 1.5 M sodium potassium tartrate; molecular replacement with mouse PER2 PAS-B (PDB 3GDI)"}
{"protein": "B1", "values": [{"measurement": "binding result", "value": "binds"}]}
